Experimental findings from US20230012273A1 (Boehringer Ingelheim, published 2023) are described below.

The assay has as its target T1, full-length human SIRPβL (NP_001129316.1) on cells (human, UniProt Q5TFQ8 30-398).
T1 construct: one molecule for U937 SIRPα-KO transfectants (NP_001129316.1) and Expi-CHO transfectants (Q5TFQ8); also called SIRPβ1v3; βL WT
As to the kind of experiment: flow cytometry, U937 SIRPα-KO cells expressing full-length human SIRPβL. On the procedure:
Antibody binding to cells expressing full-length human SIRPβ1 (NP_006056.2) and SIRPβL (NP_001129316.1) is evaluated by flow cytometry. SIRPβ1- or SIRPβL-expressing U937^{SIRPα KO} cells are blocked with donkey IgG and incubated on ice with increasing concentrations of antibodies for 60 minutes, washed and stained with AF647-conjugated donkey F(ab′)₂ anti-human IgG secondary reagent. Cells are washed, fixed, and analyzed by flow cytometry. Median fluorescent intensity is determined and used as a measure of antibody binding.
A general note: Flow cytometry measures light scatter and fluorescence of single cells or particles in a stream.

T1 sequence (Q5TFQ8 30-398): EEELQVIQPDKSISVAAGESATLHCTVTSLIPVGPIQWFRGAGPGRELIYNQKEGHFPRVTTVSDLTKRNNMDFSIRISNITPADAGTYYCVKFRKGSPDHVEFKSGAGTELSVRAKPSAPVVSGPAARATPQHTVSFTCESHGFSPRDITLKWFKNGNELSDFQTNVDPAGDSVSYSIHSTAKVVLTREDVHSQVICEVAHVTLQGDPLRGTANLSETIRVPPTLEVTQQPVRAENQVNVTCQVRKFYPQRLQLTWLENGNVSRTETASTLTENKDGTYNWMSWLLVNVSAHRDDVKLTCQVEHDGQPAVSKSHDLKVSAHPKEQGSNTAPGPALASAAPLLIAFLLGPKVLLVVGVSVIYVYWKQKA

B1: Antibody A (antibody, human IgG1, kappa, L234A L235A)
heavy: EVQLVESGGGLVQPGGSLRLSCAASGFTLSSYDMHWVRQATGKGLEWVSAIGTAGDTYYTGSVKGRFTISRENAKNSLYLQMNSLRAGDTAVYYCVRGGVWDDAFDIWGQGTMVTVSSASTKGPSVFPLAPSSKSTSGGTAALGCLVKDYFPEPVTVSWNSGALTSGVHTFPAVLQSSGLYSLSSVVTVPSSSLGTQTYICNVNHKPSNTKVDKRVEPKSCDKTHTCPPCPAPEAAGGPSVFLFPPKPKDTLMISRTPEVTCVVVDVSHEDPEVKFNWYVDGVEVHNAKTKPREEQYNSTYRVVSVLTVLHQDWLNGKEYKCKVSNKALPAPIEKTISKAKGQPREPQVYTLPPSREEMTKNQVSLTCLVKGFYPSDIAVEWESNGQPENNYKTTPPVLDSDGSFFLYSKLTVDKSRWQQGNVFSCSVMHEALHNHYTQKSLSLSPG
light: DIQMTQSPSSLSASVGDRVTITCRASQDINNYLAWFQQKPGKAPKSLIYTASSLHSGVPSKFSGSGSGTDFTLTISSLQPEDFATYYCQQYVSYPYTFGQGTKLEIKRTVAAPSVFIFPPSDEQLKSGTASVVCLLNNFYPREAKVQWKVDNALQSGNSQESVTEQDSKDSTYSLSSTLTLSKADYEKHKVYACEVTHQGLSSPVTKSFNRGEC
For B1, the binding result is “no binding (tested: about 200 nM)”.
